Among the data in patent US20200016266A1 are EC50 (read off the curve) values, retold here.

The assay has as its target recombinant extracellular domain of human VEGFR2 (rhVEGFR2), expressed in human cells (Sino Biological Inc.) (human) (UniProt P35968). Kind of assay: FRET fluorescence spectroscopy, 0.5 µM 488-VEGFR2 titrated with 594-Gal1, emission at 518 nm.

recombinant extracellular domain of human VEGFR2 (rhVEGFR2), expressed in human cells (Sino Biological Inc.) (human), sequence (P35968 20-764 limits assumed): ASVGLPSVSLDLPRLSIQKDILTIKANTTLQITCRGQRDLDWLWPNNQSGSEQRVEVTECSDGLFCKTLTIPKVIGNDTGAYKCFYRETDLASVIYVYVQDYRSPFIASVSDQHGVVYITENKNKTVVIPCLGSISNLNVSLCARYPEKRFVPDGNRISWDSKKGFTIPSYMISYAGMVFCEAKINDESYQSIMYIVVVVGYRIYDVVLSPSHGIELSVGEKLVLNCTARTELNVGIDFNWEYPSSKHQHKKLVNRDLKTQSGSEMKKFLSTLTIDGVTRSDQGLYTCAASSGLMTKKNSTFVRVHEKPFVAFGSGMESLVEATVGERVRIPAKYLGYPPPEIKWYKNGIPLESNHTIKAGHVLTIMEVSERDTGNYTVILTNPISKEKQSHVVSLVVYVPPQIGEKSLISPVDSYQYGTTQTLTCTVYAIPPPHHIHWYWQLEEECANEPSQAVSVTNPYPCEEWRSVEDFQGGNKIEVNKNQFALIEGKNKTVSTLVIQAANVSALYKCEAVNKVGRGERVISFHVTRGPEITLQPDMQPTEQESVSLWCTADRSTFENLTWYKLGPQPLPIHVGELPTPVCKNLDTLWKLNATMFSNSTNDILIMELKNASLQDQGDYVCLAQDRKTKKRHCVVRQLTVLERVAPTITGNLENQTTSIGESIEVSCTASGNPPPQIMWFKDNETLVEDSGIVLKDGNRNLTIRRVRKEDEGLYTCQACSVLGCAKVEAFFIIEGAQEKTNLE

What is called EC50 (read off the curve) is the midpoint of the concentration-response curve. For “Galectin-1 (human recombinant Gal1) (from UniProt P09382 2-135) (ligand)”, the EC50 (read off the curve) was found to be 7 µM.
